The text below walks through data of patent US20200399369A1 (Sanofi, published 2020).

The target in assay [1] is T1, human CD38 on tumor cell lines NCI-H929 (CD38+/CD28+) and OCI-LY19 (CD38+/CD28-) (human, UniProt P28907 1-300). Kind of assay: cell-based or functional assay.
In assay [2] the target is T1, human CD38 on tumor cell lines NCI-H929 …. Nature of the assay: cell-based or functional assay. The source holds these as a separate data set.
The target in assay [3] is T2, Human CD28 (human, UniProt P10747 19-152, limits assumed).
T2 construct: also called hCD28
Nature of the assay: ELISA, antigen-coated plate.
Experimental: (§1) Binding affinities to each target antigen by the CD38/CD28×CD3 T cell engagers were measured by ELISA. Briefly, each antigen was used to coat the 96-well Immuno Plate (Thermo Fisher Scientific) overnight at 4° C. using 200 ng/well in PBS (pH7.4) of each antigen. The coated plate was blocked using 5% skim milk+2% BSA in PBS for one hour at RT, followed by washing with PBS+0.25% Tween 20 three times (Aqua Max 400, Molecular Devices). Serial dilution of antibodies (trispecific and control Abs) were prepared and added onto the ELISA plates (100 μl/well in duplicate), incubated at room temperature (RT) for one hour, followed by washing 5 times with PBS+0.25% Tween 20. […] The reaction was terminated by adding 50 μl 1M H₂SO₄, and OD450 was measured using SpectraMax M5 (Molecular Devices) and analyzed using SoftMax Pro6.3 software (Molecular Devices). The final data was transferred to GraphPad Prism software (GraphPad Software, CA, USA), and plotted. EC50 was calculated using the same software.
(§2) The binding affinities of selected CD38/CD28sup×CD3mid_ENLQ DKTHT IgG4 FALA trispecific antibodies with alternative anti-CD38 binding domains for human CD3, human CD28, human CD38 and cynomolgus monkey CD38 were then determined by ELISA as described above.

In assay [4] the target is T3, human CD38 (human, UniProt P28907 43-300, limits assumed).
T3 construct: also called hCD38; huCD38
Nature of the assay: ELISA, antigen-coated plate.
Experimental: as §1, §2

The target of assay [5] is T4, cynomolgus monkey CD38 (cynomolgus monkey, UniProt Q5VAN0 44-301, limits assumed).
T4 construct: also called Cyno CD38; cynoCD38
Nature of the assay: ELISA, antigen-coated plate.
Experimental: as §1, §2

For assay [6], the target named is T5, Human CD3 (human).
T5 chain: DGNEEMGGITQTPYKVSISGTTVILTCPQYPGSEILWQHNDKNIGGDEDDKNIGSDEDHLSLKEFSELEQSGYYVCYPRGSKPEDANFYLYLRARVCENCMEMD
Nature of the assay: ELISA, antigen-coated plate.
Experimental: as §1, §2

The target of assay [7] is T6, Human CD38-His (human, UniProt P28907 43-300, limits assumed).
T6 construct: Bought antigen; also called human CD38 (SPR antigen); not shown: His tag
Kind of assay: SPR (BIACORE 3000), capture format, 1:1 Langmuir model.

B1: CD38hyb6284/CD28sup x CD3mid_ENLQ DKTHT IgG4 FALA (other)
light 1: DIVMTQTPLSLSVTPGQPASISCKSSQSLVHENLQTYLSWYLQKPGQSPQSLIYKVSNRFSGVPDRFSGSGSGTDFTLKISRVEAEDVGVYYCGQGTQYPFTFGSGTKVEIKDKTHTDIQMTQSPSSLSASVGDRVTITCQASQNIYVWLNWYQQKPGKAPKLLIYKASNLHTGVPSRFSGSGSGTDFTLTISSLQPEDIATYYCQQGQTYPYTFGQGTKLEIKDKTHTRTVAAPSVFIFPPSDEQLKSGTASVVCLLNNFYPREAKVQWKVDNALQSGNSQESVTEQDSKDSTYSLSSTLTLSKADYEKHKVYACEVTHQGLSSPVTKSFNRGEC
heavy 1: QVQLVQSGAEVVKPGASVKVSCKASGYTFTSYYIHWVRQAPGQGLEWIGSIYPGNVNTNYAQKFQGRATLTVDTSISTAYMELSRLRSDDTAVYYCTRSHYGLDWNFDVWGKGTTVTVSSDKTHTQVQLVESGGGVVQPGRSLRLSCAASGFTFTKAWMHWVRQAPGKQLEWVAQIKDKSNSYATYYADSVKGRFTISRDDSKNTLYLQMNSLRAEDTAVYYCRGVYYALSPFDYWGQGTLVTVSSDKTHTASTKGPSVFPLAPCSRSTSESTAALGCLVKDYFPEPVTVSWNSGALTSGVHTFPAVLQSSGLYSLSSVVTVPSSSLGTKTYTCNVDHKPSNTKVDKRVESKYGPPCPPCPAPEAAGGPSVFLFPPKPKDTLMISRTPEVTCVVVDVSQEDPEVQFNWYVDGVEVHNAKTKPREEQFNSTYRVVSVLTVLHQDWLNGKEYKCKVSNKGLPSSIEKTISKAKGQPREPQVCTLPPSQEEMTKNQVSLSCAVKGFYPSDIAVEWESNGQPENNYKTTPPVLDSDGSFFLVSKLTVDKSRWQEGNVFSCSVMHEALHNHYTQKSLSLSLG
heavy 2: QVQLLQSGAELVRPGVSVKISCTGSGYSFTNYAVHWVKQSHVKSLEWIGVISPYYGDTTYNQKFTGKATMTVDKSSSTAYMELARLTSEDSAIYFCARRFEGFYYSMDYWGQGTSVTVSSASTKGPSVFPLAPCSRSTSESTAALGCLVKDYFPEPVTVSWNSGALTSGVHTFPAVLQSSGLYSLSSVVTVPSSSLGTKTYTCNVDHKPSNTKVDKRVESKYGPPCPPCPAPEAAGGPSVFLFPPKPKDTLMISRTPEVTCVVVDVSQEDPEVQFNWYVDGVEVHNAKTKPREEQFNSTYRVVSVLTVLHQDWLNGKEYKCKVSNKGLPSSIEKTISKAKGQPREPQVYTLPPCQEEMTKNQVSLWCLVKGFYPSDIAVEWESNGQPENNYKTTPPVLDSDGSFFLYSKLTVDKSRWQEGNVFSCSVMHEALHNHYTQKSLSLSLG
light 2: DVVMIQTPLSLPVSLGDQASISCRPSQSLVHSNGNTYLNWYLQRPGQSPKLLIYKVSKRFSGVPDRFSGSGSGTDFTLKISRVEAEDLGVYLCSQSTHVPLTFGSGTQLEIKRTVAAPSVFIFPPSDEQLKSGTASVVCLLNNFYPREAKVQWKVDNALQSGNSQESVTEQDSKDSTYSLSSTLTLSKADYEKHKVYACEVTHQGLSSPVTKSFNRGEC
notes: Trispecific antibody; also called BP # 7
Turning to B1, in assay [1], the “EC50 of in vitro killing of NCI-H929 (CD38+/CD28+) cells, With Dara” value (“EC50 … (CD38+/CD28+) cells, With Dara” for short) is 0.0336 nM and the “EC50 of in vitro killing of NCI-H929 (CD38+/CD28+) cells, With human IgG1” value (from here on “EC50 … (CD38+/CD28+) cells, With human IgG1”) is 0.00437 nM. In assay [2], the “EC50 of in vitro killing of OCI-LY19 (CD38+/CD28-) cells, With Dara” value (“EC50 … (CD38+/CD28-) cells, With Dara” below) was 0.081 nM and the “EC50 of in vitro killing of OCI-LY19 (CD38+/CD28-) cells, With human IgG1” value (“EC50 … (CD38+/CD28-) cells, With human IgG1” for short) came out at 0.0421 nM. Moreover, in assay [3], the response was half-maximal at 0.711 nM (EC50). For the same molecule, the EC50 in assay [4] was determined as 0.253 nM. This molecule also gave a half-maximal effective concentration (EC50) in assay [5] of 0.29 nM. This molecule had an EC50 in assay [6] of 8.22 nM. Further, in assay [7], the Kd is 0.652 nM, the koff amounted to 0.000512 s⁻¹ and the kon was 785000 M⁻¹ s⁻¹.

B2: CD38hhy1370/CD28sup x CD3mid_ENLQ DKTHT IgG4 FALA (other)
light 1: DIVMTQTPLSLSVTPGQPASISCKSSQSLVHENLQTYLSWYLQKPGQSPQSLIYKVSNRFSGVPDRFSGSGSGTDFTLKISRVEAEDVGVYYCGQGTQYPFTFGSGTKVEIKDKTHTDIQMTQSPSSLSASVGDRVTITCQASQNIYVWLNWYQQKPGKAPKLLIYKASNLHTGVPSRFSGSGSGTDFTLTISSLQPEDIATYYCQQGQTYPYTFGQGTKLEIKDKTHTRTVAAPSVFIFPPSDEQLKSGTASVVCLLNNFYPREAKVQWKVDNALQSGNSQESVTEQDSKDSTYSLSSTLTLSKADYEKHKVYACEVTHQGLSSPVTKSFNRGEC
heavy 1: QVQLVQSGAEVVKPGASVKVSCKASGYTFTSYYIHWVRQAPGQGLEWIGSIYPGNVNTNYAQKFQGRATLTVDTSISTAYMELSRLRSDDTAVYYCTRSHYGLDWNFDVWGKGTTVTVSSDKTHTQVQLVESGGGVVQPGRSLRLSCAASGFTFTKAWMHWVRQAPGKQLEWVAQIKDKSNSYATYYADSVKGRFTISRDDSKNTLYLQMNSLRAEDTAVYYCRGVYYALSPFDYWGQGTLVTVSSDKTHTASTKGPSVFPLAPCSRSTSESTAALGCLVKDYFPEPVTVSWNSGALTSGVHTFPAVLQSSGLYSLSSVVTVPSSSLGTKTYTCNVDHKPSNTKVDKRVESKYGPPCPPCPAPEAAGGPSVFLFPPKPKDTLMISRTPEVTCVVVDVSQEDPEVQFNWYVDGVEVHNAKTKPREEQFNSTYRVVSVLTVLHQDWLNGKEYKCKVSNKGLPSSIEKTISKAKGQPREPQVCTLPPSQEEMTKNQVSLSCAVKGFYPSDIAVEWESNGQPENNYKTTPPVLDSDGSFFLVSKLTVDKSRWQEGNVFSCSVMHEALHNHYTQKSLSLSLG
heavy 2: QVQLVESGGGVVQPGRSLRLSCAASGFTFSSYGMHWVRQAPGKGLEWVAVIWYDGSNKYYADSVKGRFTISGDNSKNTLYLQMNSLRAEDTAVYYCARMFRGAFDYWGQGTLVTVSSASTKGPSVFPLAPCSRSTSESTAALGCLVKDYFPEPVTVSWNSGALTSGVHTFPAVLQSSGLYSLSSVVTVPSSSLGTKTYTCNVDHKPSNTKVDKRVESKYGPPCPPCPAPEAAGGPSVFLFPPKPKDTLMISRTPEVTCVVVDVSQEDPEVQFNWYVDGVEVHNAKTKPREEQFNSTYRVVSVLTVLHQDWLNGKEYKCKVSNKGLPSSIEKTISKAKGQPREPQVYTLPPCQEEMTKNQVSLWCLVKGFYPSDIAVEWESNGQPENNYKTTPPVLDSDGSFFLYSKLTVDKSRWQEGNVFSCSVMHEALHNHYTQKSLSLSLG
light 2: AIQMTQSPSSLSASVGDRVTITCRASQGIRNDLGWYQQKPGKAPKLLIYAASSLQSGVPSRFSGSGSGTDFTLTISGLQPEDSATYYCLQDYIYYPTFGQGTKVEIKRTVAAPSVFIFPPSDEQLKSGTASVVCLLNNFYPREAKVQWKVDNALQSGNSQESVTEQDSKDSTYSLSSTLTLSKADYEKHKVYACEVTHQGLSSPVTKSFNRGEC
notes: Trispecific antibody; also called BP # 9
Regarding B2, in assay [1], the “EC50 … (CD38+/CD28+) cells, With Dara” value is 0.255 nM and the “EC50 … (CD38+/CD28+) cells, With human IgG1” value was 0.0096 nM. Further, in assay [2], the “EC50 … (CD38+/CD28-) cells, With Dara” value was determined as 0.21 nM and the “EC50 … (CD38+/CD28-) cells, With human IgG1” value stood at 0.0585 nM. It took 1.26 nM to reach a half-maximal effect in assay [3] (EC50). This molecule gave an EC50 in assay [4] of 0.587 nM. In assay [5], the response was half-maximal at 0.553 nM (EC50). In addition, the midpoint of the response in assay [6], the EC50, lay at 25 nM. Besides, in assay [7], binding was characterised by a dissociation constant (Kd) of 0.876 nM, the koff worked out at 0.000329 s⁻¹ and the on-rate constant (kon) came out at 376000 M⁻¹ s⁻¹.

B3: CD38hhy1195/CD28sup x CD3mid_ENLQ DKTHT IgG4 FALA (other)
light 1: DIVMTQTPLSLSVTPGQPASISCKSSQSLVHENLQTYLSWYLQKPGQSPQSLIYKVSNRFSGVPDRFSGSGSGTDFTLKISRVEAEDVGVYYCGQGTQYPFTFGSGTKVEIKDKTHTDIQMTQSPSSLSASVGDRVTITCQASQNIYVWLNWYQQKPGKAPKLLIYKASNLHTGVPSRFSGSGSGTDFTLTISSLQPEDIATYYCQQGQTYPYTFGQGTKLEIKDKTHTRTVAAPSVFIFPPSDEQLKSGTASVVCLLNNFYPREAKVQWKVDNALQSGNSQESVTEQDSKDSTYSLSSTLTLSKADYEKHKVYACEVTHQGLSSPVTKSFNRGEC
heavy 1: QVQLVQSGAEVVKPGASVKVSCKASGYTFTSYYIHWVRQAPGQGLEWIGSIYPGNVNTNYAQKFQGRATLTVDTSISTAYMELSRLRSDDTAVYYCTRSHYGLDWNFDVWGKGTTVTVSSDKTHTQVQLVESGGGVVQPGRSLRLSCAASGFTFTKAWMHWVRQAPGKQLEWVAQIKDKSNSYATYYADSVKGRFTISRDDSKNTLYLQMNSLRAEDTAVYYCRGVYYALSPFDYWGQGTLVTVSSDKTHTASTKGPSVFPLAPCSRSTSESTAALGCLVKDYFPEPVTVSWNSGALTSGVHTFPAVLQSSGLYSLSSVVTVPSSSLGTKTYTCNVDHKPSNTKVDKRVESKYGPPCPPCPAPEAAGGPSVFLFPPKPKDTLMISRTPEVTCVVVDVSQEDPEVQFNWYVDGVEVHNAKTKPREEQFNSTYRVVSVLTVLHQDWLNGKEYKCKVSNKGLPSSIEKTISKAKGQPREPQVCTLPPSQEEMTKNQVSLSCAVKGFYPSDIAVEWESNGQPENNYKTTPPVLDSDGSFFLVSKLTVDKSRWQEGNVFSCSVMHEALHNHYTQKSLSLSLG
heavy 2: QVQLVESGGGVVQPGRSLRLSCAASGFTFSSYGMYWVRQAPGKGLEWVAVIWYDGSNKYYADSVKGRFTISRDNSKNTLYLQMNSLRAEDTAVYHCARDPGLRYFDGGMDVWGQGTTVTVSSASTKGPSVFPLAPCSRSTSESTAALGCLVKDYFPEPVTVSWNSGALTSGVHTFPAVLQSSGLYSLSSVVTVPSSSLGTKTYTCNVDHKPSNTKVDKRVESKYGPPCPPCPAPEAAGGPSVFLFPPKPKDTLMISRTPEVTCVVVDVSQEDPEVQFNWYVDGVEVHNAKTKPREEQFNSTYRVVSVLTVLHQDWLNGKEYKCKVSNKGLPSSIEKTISKAKGQPREPQVYTLPPCQEEMTKNQVSLWCLVKGFYPSDIAVEWESNGQPENNYKTTPPVLDSDGSFFLYSKLTVDKSRWQEGNVFSCSVMHEALHNHYTQKSLSLSLG
light 2: DIQLTQSPSFLSASVGDRVTITCRASQGISSYLAWYQQKPGKAPKLLIFAASTLHSGVPSRFSGSGSGTEFTLTISSLQPEDFATYYCQQLNSFPYTFGQGTKLEIKRTVAAPSVFIFPPSDEQLKSGTASVVCLLNNFYPREAKVQWKVDNALQSGNSQESVTEQDSKDSTYSLSSTLTLSKADYEKHKVYACEVTHQGLSSPVTKSFNRGEC
notes: Trispecific antibody; also called BP # 8
For the molecule B3, in assay [1], the “EC50 … (CD38+/CD28+) cells, With Dara” value was determined as 0.0893 nM and the “EC50 … (CD38+/CD28+) cells, With human IgG1” value turned out to be 0.017 nM. Further, in assay [2], the “EC50 … (CD38+/CD28-) cells, With Dara” value is 0.715 nM and the “EC50 … (CD38+/CD28-) cells, With human IgG1” value amounted to 0.296 nM. Further, in assay [3], the 50% effective concentration (EC50) was found to be 0.697 nM. The same molecule came in with an EC50 in assay [4] of 103 nM. In assay [5], the EC50 amounted to 37.7 nM. The molecule further displayed an EC50 in assay [6] of 7.63 nM. In assay [7], this molecule gave a Kd of 14.2 nM, a koff of 0.018 s⁻¹ and an on-rate (kon) of 1.27e+06 M⁻¹ s⁻¹.
